# Values of other authors in paper PMC3174036.
# Biological target: VEGFR-2 D7 D7 (Homo sapiens) (UniProt P35968)
substance,measurement,value
VEGFR-2 D7 D7 (from UniProt P35968),Kd,100 µM
